Measured values as given in paper PMC9765892, “Molecular identification and functional characterization of two glycosyltransferases genes from Fallopia multiflora” (Frontiers in Plant Science, 2022).

How the values were obtained:
FmUGT1 = target: T1, FmUGT1 (Pleuropterus multiflorus, UniProt A0A9E7V1Q5); assay: HPLC glycosylation assay; Lineweaver-Burk plot; assay type: biochemical; conditions: 0.8 mM UDP-glucose; 0.05 M Tris-HCl; 5-480 μM substrate; pH and temperature of kinetics not stated; substrate assigned from methods
T1 construct: gene UGT; full length, 533 residues (ORF 1602 bp); pET-32a (BamH I) in E. coli Transetta (DE3), Ni-NTA purified
Text: HPLC glycosylation assay; Lineweaver-Burk plot on FmUGT1 | using THSG and emodin as the substrate for FmUGT1 and FmUGT2, respectively

[1] = substrate: Cc1cc(O)c2c(c1)C(=O)c1cc(O)cc(O)c1C2=O; assay: HPLC glycosylation assay; Lineweaver-Burk plot; assay type: biochemical, Pleuropterus multiflorus; conditions: 0.8 mM UDP-glucose; 0.05 M Tris-HCl; 5-480 μM substrate; pH and temperature of kinetics not stated; substrate assigned from methods
Text: HPLC glycosylation assay; Lineweaver-Burk plot on FmUGT2 | using THSG and emodin as the substrate for FmUGT1 and FmUGT2, respectively

T1 sequence (A0A9E7V1Q5 entry or part of it): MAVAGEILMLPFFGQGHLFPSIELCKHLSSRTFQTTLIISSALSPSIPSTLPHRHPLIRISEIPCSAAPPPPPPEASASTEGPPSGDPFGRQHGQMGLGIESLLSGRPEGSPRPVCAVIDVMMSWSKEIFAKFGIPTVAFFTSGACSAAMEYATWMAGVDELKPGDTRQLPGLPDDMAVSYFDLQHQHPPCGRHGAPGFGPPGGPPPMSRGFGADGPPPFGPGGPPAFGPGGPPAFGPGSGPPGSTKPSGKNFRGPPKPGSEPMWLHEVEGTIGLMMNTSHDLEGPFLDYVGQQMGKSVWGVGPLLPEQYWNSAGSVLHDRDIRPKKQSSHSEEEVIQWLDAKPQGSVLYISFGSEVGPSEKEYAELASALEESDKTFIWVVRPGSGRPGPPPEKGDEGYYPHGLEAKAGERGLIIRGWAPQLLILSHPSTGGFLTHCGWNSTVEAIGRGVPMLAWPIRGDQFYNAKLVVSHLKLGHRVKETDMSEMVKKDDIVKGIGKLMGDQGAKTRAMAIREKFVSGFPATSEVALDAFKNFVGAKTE

| Molecule | Km (FmUGT1) | Km [1] | kcat [1] |
| --- | --- | --- | --- |
| OC[C@H]1O[C@@H](Oc2c(O)cc(O)cc2/C=C/c2ccc(O)cc2)[C@H](O)[C@@H](O)[C@@H]1O [compound 1, THSG] | 236 µM | – | – |
| FmUGT2 (Pleuropterus multiflorus) (protein, full length, 482 residues (ORF 1449 bp); pET-32a (BamH I) in E. coli Transetta (DE3), Ni-NTA purified) MTISKTANLVLIPAPGMGHLAPAIELAKHLVARDPRLSITVLLIKGFVPEETVESYILSLKSNSSLLNQGIGFIDIPQIDLNSARPSFLTHMNAYQPKVKEAIEGLRSAGPLPVAGLLVDMFCTSTIDVATELGLPSYVFFTSGAGLLRLFFHLHGLGVDVAQEYDVVRSPDTLLEIPGFRNPVPVKVLPGRFLSKDGQSSTFLRLADKFRQAKGILVNTCMEIDRDLIQSMSQQDIEIPPIYPVGPILNLPTEDDHGHDDDESSGKDPITRWLDDQPPRSVVFLCFGSRGTFNDTQIKEIAVGLERSGQRFLWSLRQRPGETGVPLELDDPSKVLPEGFFERTAEKGRVIGWAPQARVLAHKAVGAFVSHCGWNSTLESFWYGVPIAAWPIYAEQQLNAFVLVKELGLATEIRIDYCQDFGINMVVKAEEVEDGINKAMKETEVKKKVKEMCDKARKALEEGGSSYESIGRFIEVVFKNLP | – | 185 µM | 0.1413 s⁻¹ |
